Data published in paper PMC3743062 (Scientific Reports, 2013).

Target: Calmodulin (CaM), wild type (UniProt P0DP23 1-149)
Assay: crystal structure

binding result: binds
Binder: EEVSAVVLQRAYRGHLARRGFI (domain or fragment) [NaV1.6 IQ motif (1893-1914), the part of the fusion CaM-(Gly)5-NaV1.6 IQ]
